Assay results published in IntAct's records for PubMed 16520382.

B1: SHC-transforming protein 1 (Homo sapiens), P29353-1 (parent)
chain: MDLLPPKPKYNPLRNESLSSLEEGASGSTPPEELPSPSASSLGPILPPLPGDDSPTTLCSFFPRMSNLRLANPAGGRPGSKGEPGRAADDGEGIVGAAMPDSGPLPLLQDMNKLSGGGGRRTRVEGGQLGGEEWTRHGSFVNKPTRGWLHPNDKVMGPGVSYLVRYMGCVEVLQSMRALDFNTRTQVTREAISLVCEAVPGAKGATRRRKPCSRPLSSILGRSNLKFAGMPITLTVSTSSLNLMAADCKQIIANHHMQSISFASGGDPDTAEYVAYVAKDPVNQRACHILECPEGLAQDVISTIGQAFELRFKQYLRNPPKLVTPHDRMAGFDGSAWDEEEEEPPDHQYYNDFPGKEPPLGGVVDMRLREGAAPGAARPTAPNAQTPSHLGATLPVGQPVGGDPEVRKQMPPPPPCPGRELFDDPSYVNVQNLDKARQAVGGAGPPNPAINGSAPRDLFDMKPFEDALRVPPPPQSVSMAEQLRGEPWFHGKLSRREAEALLQLNGDFLVRESTTTPGQYVLTGLQSGQPKHLLLVDPEGVVRTKDHRFESVSHLISYHMDNHLPIISAGSELCLQQPVERKL

Variants of: B1
Conditions: with grb2_human GRB2, P62993

Row | effect of a mutation on the interaction | Variant
1 | decreasing interaction | MDLLPPKPKYNPLRNESLSSLEEGASGSTPPEELPSPSASSLGPILAPLAGDDSPTTLCSFFPRMSNLRLANPAGGRPGSKGEPGRAADDGEGIVGAAMPDSGPLPLLQDMNKLSGGGGRRTRVEGGQLGGEEWTRHGSFVNKPTRGWLHPNDKVMGPGVSYLVRYMGCVEVLQSMRALDFNTRTQVTREAISLVCEAVPGAKGATRRRKPCSRPLSSILGRSNLKFAGMPITLTVSTSSLNLMAADCKQIIANHHMQSISFASGGDPDTAEYVAYVAKDPVNQRACHILECPEGLAQDVISTIGQAFELRFKQYLRNPPKLVTPHDRMAGFDGSAWDEEEEEPPDHQYYNDFPGKEPPLGGVVDMRLREGAAPGAARPTAPNAQTPSHLGATLPVGQPVGGDPEVRKQMPPPPPCPGRELFDDPSYVNVQNLDKARQAVGGAGPPNPAINGSAPRDLFDMKPFEDALRVPPPPQSVSMAEQLRGEPWFHGKLSRREAEALLQLNGDFLVRESTTTPGQYVLTGLQSGQPKHLLLVDPEGVVRTKDHRFESVSHLISYHMDNHLPIISAGSELCLQQPVERKL [P47A;P50A]
